Earlier results in PMC6173998.
Like-named read-outs stand apart in the source and are kept apart here. Each block holds one substance with its values, some of them ahead of it.

Experiments:
[1] = molecular target: KD APPH Kunitz domain (Homo sapiens) (UniProt Q06481)
[2] = molecular target: FXIa (Homo sapiens) (UniProt P03951)
[3] = molecular target: FXIa (Homo sapiens) (UniProt P03951); remark: listed apart in the source
[4] = molecular target: KD APPH Kunitz domain (Homo sapiens) (UniProt Q06481); remark: listed apart in the source
[5] = molecular target: Placental bikunin (Homo sapiens) (UniProt O43291)
[6] = molecular target: Protease nexin-2 (Homo sapiens) (UniProt P05067)
[7] = molecular target: Corn Hageman factor inhibitor (Zea mays) (UniProt P01088)
[8] = molecular target: Tissue factor pathway inhibitor-2 (KD1-WT) KD1 (Homo sapiens) (UniProt P48307)
[9] = molecular target: Aprotinin (Bos taurus) (UniProt P00974)
[10] = molecular target: KD APPH Kunitz domain (Homo sapiens) (UniProt Q06481); remark: listed apart in the source
[11] = molecular target: FXIa (Homo sapiens) (UniProt P03951); remark: listed apart in the source
[12] = molecular target: KD APPH Kunitz domain (Homo sapiens) (UniProt Q06481); remark: listed apart in the source
[13] = molecular target: FXIa (Homo sapiens) (UniProt P03951); remark: listed apart in the source

KD APPH Kunitz domain (Homo sapiens), sequence (Q06481 306-364): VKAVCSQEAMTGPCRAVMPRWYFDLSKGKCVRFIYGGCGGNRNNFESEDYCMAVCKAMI
placental bikunin, sequence (O43291 28-197): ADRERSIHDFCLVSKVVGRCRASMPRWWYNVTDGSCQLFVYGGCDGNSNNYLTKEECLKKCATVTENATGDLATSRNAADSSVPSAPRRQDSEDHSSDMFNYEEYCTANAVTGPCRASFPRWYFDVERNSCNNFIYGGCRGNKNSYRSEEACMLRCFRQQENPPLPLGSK
Placental bikunin (Homo sapiens), sequence (O43291 28-197): as above
protease nexin-2, sequence (P05067 18-687): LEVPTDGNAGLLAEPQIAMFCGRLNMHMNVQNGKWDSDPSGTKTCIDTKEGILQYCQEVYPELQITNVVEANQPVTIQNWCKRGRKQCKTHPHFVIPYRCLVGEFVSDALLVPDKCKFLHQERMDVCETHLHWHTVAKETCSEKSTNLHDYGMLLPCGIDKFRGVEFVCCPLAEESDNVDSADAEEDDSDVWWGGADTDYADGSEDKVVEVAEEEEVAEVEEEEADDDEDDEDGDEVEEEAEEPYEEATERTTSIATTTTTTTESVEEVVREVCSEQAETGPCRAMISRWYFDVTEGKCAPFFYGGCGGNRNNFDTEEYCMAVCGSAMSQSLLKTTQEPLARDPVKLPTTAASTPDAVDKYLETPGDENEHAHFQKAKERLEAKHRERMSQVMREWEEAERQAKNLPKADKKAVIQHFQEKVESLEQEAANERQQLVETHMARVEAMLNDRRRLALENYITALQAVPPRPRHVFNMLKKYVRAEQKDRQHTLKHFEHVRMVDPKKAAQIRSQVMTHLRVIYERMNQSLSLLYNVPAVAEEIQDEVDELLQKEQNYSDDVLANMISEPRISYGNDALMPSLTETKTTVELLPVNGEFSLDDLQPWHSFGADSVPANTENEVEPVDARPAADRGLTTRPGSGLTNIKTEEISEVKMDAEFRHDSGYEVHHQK
Protease nexin-2 (Homo sapiens), sequence (P05067 18-687): as above
TFPI-2 (KD1-WT) KD1, sequence (P48307 36-86): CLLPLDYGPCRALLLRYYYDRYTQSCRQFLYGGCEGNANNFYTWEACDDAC
Tissue factor pathway inhibitor-2 (KD1-WT) KD1 (Homo sapiens), sequence (P48307 36-86): as above
corn Hageman factor inhibitor, sequence (P01088 29-138): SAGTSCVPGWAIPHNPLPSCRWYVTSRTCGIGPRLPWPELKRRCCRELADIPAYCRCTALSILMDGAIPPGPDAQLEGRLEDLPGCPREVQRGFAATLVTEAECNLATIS
Corn Hageman factor inhibitor (Zea mays), sequence (P01088 29-138): as above
Plasmin, sequence (P00747 581-810): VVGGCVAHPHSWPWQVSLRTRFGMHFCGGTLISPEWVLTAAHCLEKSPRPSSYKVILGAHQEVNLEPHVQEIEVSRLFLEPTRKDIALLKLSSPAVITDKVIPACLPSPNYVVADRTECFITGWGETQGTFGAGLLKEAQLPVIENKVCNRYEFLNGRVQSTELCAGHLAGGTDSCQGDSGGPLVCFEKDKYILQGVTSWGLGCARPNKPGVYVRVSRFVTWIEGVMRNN
Plasma kallikrein, sequence (P03952 391-638): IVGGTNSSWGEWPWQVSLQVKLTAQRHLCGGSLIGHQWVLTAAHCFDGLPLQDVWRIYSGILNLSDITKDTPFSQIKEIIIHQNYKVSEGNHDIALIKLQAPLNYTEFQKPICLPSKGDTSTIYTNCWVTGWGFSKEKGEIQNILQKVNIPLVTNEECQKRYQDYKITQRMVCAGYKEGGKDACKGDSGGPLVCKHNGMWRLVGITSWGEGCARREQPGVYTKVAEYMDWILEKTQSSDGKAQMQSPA

Ki [1]: 86 nM
Substance: Plasma kallikrein (from UniProt P03952)

Ki [2]: 15 nM
Substance: TFPI-2 (KD1-WT) KD1 (from UniProt P48307)

Ki [3]: 5400 nM
Substance: corn Hageman factor inhibitor (from UniProt P01088)

Ki [4]: 14 nM | Ki [5]: 6 nM | Ki [6]: 0.4 nM | Ki [7]: 5400 nM | Ki [8]: 15 nM | Ki [9]: 288 nM
Substance: Factor XIa (from UniProt P03951)

Ki [10]: 8.8 nM
Substance: Glandular kallikrein (from UniProt P06870)

Ki [11]: 6 nM
Substance: placental bikunin (from UniProt O43291)

Ki [12]: 81 nM
Substance: Plasmin (from UniProt P00747)

Ki [13]: 0.4 nM
Substance: protease nexin-2 (from UniProt P05067)
